Reference: the supplement of paper PMC10065799, “High-throughput profiling of sequence recognition by tyrosine kinases and SH2 domains using bacterial peptide display” (eLife, 2023)

Experiments:
[1] = system: AncSZ; test: phosphorylation enrichment, bacterial display (enrichment ratio); higher = better substrate or ligand; peptides without Tyr show the background
[2] = molecular target: EPHB1 (UniProt P54762); test: as above
[3] = molecular target: EPHB2 (UniProt P29323); test: as above
[4] = molecular target: FGFR1 (UniProt P11362); test: as above
Chain of FGFR1 (P11362 whole entry, looked up): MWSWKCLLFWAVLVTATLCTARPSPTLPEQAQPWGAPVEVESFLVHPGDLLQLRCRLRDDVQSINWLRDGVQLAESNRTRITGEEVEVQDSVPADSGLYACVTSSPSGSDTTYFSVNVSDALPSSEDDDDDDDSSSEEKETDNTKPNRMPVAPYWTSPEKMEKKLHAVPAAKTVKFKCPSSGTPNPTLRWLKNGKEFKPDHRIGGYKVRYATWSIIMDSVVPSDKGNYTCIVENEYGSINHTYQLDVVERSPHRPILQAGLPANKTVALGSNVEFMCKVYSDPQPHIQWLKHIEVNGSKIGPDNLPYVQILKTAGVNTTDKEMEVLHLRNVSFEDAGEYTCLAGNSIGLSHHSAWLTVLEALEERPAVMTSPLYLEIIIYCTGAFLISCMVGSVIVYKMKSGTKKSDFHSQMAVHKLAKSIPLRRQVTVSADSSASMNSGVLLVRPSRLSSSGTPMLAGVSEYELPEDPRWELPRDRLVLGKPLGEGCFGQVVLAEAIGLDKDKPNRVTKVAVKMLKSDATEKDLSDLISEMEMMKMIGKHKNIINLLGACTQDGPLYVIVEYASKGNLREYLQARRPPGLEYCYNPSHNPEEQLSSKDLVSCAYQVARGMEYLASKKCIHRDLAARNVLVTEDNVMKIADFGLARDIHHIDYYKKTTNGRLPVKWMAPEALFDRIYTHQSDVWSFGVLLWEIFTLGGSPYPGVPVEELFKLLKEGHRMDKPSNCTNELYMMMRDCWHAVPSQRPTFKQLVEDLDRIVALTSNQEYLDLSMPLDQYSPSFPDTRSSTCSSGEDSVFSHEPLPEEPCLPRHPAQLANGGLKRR

[5] = molecular target: FGFR3 (UniProt P22607); test: as above
Chain of FGFR3 (P22607 whole entry, looked up): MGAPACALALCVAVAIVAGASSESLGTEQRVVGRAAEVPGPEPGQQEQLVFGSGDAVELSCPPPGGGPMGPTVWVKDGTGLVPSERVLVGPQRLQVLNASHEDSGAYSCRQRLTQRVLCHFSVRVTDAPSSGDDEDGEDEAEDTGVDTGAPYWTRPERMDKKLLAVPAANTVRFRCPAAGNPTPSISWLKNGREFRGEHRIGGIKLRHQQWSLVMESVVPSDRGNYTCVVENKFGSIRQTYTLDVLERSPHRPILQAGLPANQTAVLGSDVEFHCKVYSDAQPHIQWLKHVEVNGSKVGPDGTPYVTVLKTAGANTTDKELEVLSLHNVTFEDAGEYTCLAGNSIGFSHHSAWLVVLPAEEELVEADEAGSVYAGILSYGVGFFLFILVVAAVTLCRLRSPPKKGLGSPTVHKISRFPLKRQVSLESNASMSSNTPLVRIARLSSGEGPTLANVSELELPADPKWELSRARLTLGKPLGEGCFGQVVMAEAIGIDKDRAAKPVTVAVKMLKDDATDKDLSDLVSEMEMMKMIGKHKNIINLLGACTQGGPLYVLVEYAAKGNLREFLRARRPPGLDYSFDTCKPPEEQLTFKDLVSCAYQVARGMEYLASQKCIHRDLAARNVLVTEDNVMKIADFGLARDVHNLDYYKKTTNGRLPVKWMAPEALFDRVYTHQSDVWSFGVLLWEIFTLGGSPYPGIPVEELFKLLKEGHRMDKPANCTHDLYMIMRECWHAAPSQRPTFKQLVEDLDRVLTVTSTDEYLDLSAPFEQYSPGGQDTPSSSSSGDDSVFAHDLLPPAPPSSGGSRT

[6] = system: Fer (mouse); test: as above
[7] = molecular target: Fes (UniProt P07332); test: as above
Chain of Fes (P07332 whole entry, looked up): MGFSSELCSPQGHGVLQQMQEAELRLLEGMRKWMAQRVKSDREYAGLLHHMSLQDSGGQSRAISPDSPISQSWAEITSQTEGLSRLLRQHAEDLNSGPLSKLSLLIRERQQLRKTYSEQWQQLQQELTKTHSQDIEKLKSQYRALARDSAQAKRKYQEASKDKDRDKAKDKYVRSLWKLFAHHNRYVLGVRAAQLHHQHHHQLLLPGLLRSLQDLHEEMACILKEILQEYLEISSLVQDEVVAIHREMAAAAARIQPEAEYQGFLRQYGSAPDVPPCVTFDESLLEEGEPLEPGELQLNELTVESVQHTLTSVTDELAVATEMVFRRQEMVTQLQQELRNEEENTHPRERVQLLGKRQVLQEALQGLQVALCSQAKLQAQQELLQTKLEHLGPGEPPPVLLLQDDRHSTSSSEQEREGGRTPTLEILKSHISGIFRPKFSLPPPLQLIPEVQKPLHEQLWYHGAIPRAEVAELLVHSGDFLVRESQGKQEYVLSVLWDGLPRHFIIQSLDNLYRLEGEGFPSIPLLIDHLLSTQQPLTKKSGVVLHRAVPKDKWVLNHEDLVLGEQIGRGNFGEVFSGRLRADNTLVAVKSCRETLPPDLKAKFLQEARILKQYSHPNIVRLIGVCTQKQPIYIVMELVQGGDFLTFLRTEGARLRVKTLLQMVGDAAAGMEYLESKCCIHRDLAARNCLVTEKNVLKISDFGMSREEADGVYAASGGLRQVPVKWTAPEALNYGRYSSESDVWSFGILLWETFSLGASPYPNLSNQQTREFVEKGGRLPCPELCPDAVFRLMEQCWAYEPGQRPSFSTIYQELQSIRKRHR

[8] = molecular target: Fyn (UniProt P06241); test: as above
[9] = molecular target: Hck (UniProt P08631); test: as above
Chain of Hck (P08631 whole entry, looked up): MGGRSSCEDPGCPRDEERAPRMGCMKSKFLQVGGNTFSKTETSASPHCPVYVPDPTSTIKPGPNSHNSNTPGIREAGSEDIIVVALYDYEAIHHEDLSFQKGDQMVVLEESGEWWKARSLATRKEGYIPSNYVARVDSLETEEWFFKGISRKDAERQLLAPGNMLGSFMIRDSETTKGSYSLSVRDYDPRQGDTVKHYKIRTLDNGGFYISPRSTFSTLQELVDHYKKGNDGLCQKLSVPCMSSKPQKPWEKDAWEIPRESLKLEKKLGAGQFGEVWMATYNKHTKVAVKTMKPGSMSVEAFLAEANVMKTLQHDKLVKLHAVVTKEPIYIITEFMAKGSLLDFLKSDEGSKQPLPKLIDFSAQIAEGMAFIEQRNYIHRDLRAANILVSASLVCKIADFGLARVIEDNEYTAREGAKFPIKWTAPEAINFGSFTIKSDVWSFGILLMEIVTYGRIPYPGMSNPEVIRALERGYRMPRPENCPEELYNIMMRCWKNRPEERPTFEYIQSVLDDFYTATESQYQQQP

[10] = molecular target: Jak2 (UniProt O60674); test: as above
Chain of Jak2 (O60674 whole entry, looked up): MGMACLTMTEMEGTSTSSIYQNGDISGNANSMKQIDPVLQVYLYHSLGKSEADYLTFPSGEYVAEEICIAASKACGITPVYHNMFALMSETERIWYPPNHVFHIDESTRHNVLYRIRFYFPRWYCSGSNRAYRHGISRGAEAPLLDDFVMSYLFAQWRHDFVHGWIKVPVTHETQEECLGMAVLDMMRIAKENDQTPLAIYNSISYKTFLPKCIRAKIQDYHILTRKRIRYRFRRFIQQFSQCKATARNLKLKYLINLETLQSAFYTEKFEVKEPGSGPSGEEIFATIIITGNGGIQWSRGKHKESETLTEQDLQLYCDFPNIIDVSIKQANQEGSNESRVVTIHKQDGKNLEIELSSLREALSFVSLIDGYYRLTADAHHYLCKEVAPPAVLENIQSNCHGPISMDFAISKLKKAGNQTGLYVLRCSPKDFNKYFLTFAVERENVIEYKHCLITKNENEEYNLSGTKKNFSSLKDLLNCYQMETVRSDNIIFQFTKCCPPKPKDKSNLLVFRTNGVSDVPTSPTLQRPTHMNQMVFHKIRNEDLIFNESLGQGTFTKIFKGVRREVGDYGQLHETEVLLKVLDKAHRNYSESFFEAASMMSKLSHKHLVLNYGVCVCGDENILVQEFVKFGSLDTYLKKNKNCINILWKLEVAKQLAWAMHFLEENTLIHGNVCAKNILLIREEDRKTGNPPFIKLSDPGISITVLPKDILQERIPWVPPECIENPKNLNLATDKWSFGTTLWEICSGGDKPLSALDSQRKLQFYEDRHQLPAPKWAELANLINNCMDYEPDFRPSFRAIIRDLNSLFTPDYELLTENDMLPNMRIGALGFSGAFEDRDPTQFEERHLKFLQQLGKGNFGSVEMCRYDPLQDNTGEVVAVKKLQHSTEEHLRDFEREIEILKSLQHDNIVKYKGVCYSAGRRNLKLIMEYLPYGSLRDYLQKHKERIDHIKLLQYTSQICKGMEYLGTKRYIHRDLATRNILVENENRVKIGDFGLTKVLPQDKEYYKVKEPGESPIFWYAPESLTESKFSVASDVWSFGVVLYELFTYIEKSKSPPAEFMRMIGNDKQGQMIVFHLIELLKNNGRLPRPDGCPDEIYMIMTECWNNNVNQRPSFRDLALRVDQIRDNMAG

[11] = molecular target: MERTK (UniProt Q12866); test: as above
[12] = system: c-Abl (mouse); test: as above
[13] = system: c-Src; test: as above
[14] = molecular target: Grb2 SH2 (UniProt P62993); test: SH2 binding enrichment of the phosphorylated peptide, bacterial display (enrichment ratio); higher = better substrate or ligand; peptides without Tyr show the background
[15] = molecular target: SHP2-C SH2; test: as above
[16] = molecular target: c-Src SH2; test: as above
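Throughout, for SH2 binding enrichment of the phosphorylated peptide, bacterial display: peptide library displayed on the E. coli surface as eCPX fusions, selected cells deep-sequenced, score is each peptide's frequency after selection divided by its frequency in the input.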
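Throughout, for phosphorylation enrichment, bacterial display: 11-residue human phosphosite peptides and single-mutation variants displayed on the E. coli surface, counted by deep sequencing, each peptide's frequency after selection divided by its frequency in the unselected input library; frequency after pTyr selection over input frequency; kinase dosed for 20-30% of maximal phosphorylation in three min.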

Chain of EPHB1 (P54762 whole entry, looked up): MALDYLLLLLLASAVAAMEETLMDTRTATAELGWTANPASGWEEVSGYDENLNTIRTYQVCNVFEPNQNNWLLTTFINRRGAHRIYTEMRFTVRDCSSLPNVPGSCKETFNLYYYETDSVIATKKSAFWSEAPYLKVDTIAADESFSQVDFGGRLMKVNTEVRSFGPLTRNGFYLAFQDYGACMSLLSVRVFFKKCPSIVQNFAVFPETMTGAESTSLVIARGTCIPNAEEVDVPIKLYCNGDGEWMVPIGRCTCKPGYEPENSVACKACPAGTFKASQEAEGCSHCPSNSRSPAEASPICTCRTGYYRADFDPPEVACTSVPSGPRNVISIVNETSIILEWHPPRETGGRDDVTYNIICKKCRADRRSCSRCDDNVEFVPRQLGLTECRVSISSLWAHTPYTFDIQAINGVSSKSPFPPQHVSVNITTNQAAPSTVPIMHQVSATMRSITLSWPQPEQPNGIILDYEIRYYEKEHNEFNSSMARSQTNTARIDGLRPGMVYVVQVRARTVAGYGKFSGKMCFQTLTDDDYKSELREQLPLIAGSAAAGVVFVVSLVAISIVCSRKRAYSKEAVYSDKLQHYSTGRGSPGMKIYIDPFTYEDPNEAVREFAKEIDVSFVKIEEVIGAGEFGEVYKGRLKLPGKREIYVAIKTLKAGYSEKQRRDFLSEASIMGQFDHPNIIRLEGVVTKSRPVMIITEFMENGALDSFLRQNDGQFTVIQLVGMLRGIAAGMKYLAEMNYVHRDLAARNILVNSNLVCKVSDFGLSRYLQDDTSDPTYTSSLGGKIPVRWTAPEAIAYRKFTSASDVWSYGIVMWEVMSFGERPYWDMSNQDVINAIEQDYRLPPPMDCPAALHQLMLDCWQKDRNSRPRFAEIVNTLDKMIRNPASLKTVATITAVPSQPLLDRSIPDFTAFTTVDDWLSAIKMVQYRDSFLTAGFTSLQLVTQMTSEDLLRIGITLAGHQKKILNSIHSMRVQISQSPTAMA

Sequence	SH2 binding enrichment [14]	SH2 binding enrichment [15]	SH2 binding enrichment [16]	phosphorylation enrichment [1]	phosphorylation enrichment [2]	phosphorylation enrichment [3]	phosphorylation enrichment [4]	phosphorylation enrichment [5]	phosphorylation enrichment [6]	phosphorylation enrichment [7]	phosphorylation enrichment [8]	phosphorylation enrichment [9]	phosphorylation enrichment [10]	phosphorylation enrichment [11]	phosphorylation enrichment [12]	phosphorylation enrichment [13]
FARNCYVAGQY [G6PD_Y107_S106C]	0.709	0.707	0.469	1.08	0.55	0.526	0.443	0.641	0.511	1.07	0.437	0.524	0.889	0.49	0.83	0.469
FASAEYQEALS [GALNS_Y461]	0.734	0.598	0.569	0.949	0.454	0.466	0.482	0.618	0.369	0.858	0.454	0.481	0.759	0.348	0.505	0.485
FFPANYVAPMT [GRAP2_Y324_L319F]	0.814	0.883	0.6	0.924	4.84	2.17	0.65	0.646	0.41	0.826	0.471	0.469	0.865	0.768	1.36	0.449
FFTEEYVRDHP [DOCK2_Y1555]	0.944	0.916	0.553	0.989	0.486	0.461	0.481	0.766	0.452	0.915	0.44	0.485	1.19	0.381	0.657	0.457
FGAHKYHPLPV [OAT_Y55_N54K_YF]	1.46	1.26	1.31	0.497	0.375	0.468	0.397	0.544	0.441	0.677	0.309	0.474	0.424	0.376	0.443	0.377
FGDTSYIPFRD [CDC14C_Y132_P131S]	0.8	0.599	0.536	0.659	0.424	0.533	0.517	0.496	0.391	0.672	0.443	0.443	0.676	0.452	0.546	0.518
FGMSSYITRED [FNDC3B_Y180_T179S_YF]	0.715	0.937	0.501	0.84	0.594	0.653	0.556	0.693	0.544	0.891	0.59	0.536	0.559	0.527	0.579	0.442
FGSGNYNDFGN [HNRNPA2B1_Y300_YF]	0.975	0.408	0.683	0.941	1.97	0.544	0.378	0.505	0.362	0.995	0.347	0.4	0.726	0.363	0.876	0.419
FGSRLYKYAFK [FANCD2_Y458_L456R]	1.09	0.628	0.77	0.593	0.363	0.429	0.344	0.407	0.473	0.715	0.341	0.399	0.488	0.342	0.5	0.318
FGSVDYWEKFF [EEF1AKNMT_Y16]	0.749	0.759	0.493	1.16	0.633	0.587	0.909	1.05	0.506	1.23	0.499	0.55	1.1	0.457	0.841	0.523

Further lines, with some results ahead:

SH2 binding enrichment [14]	SH2 binding enrichment [15]	SH2 binding enrichment [16]	Sequence	phosphorylation enrichment [1]	phosphorylation enrichment [2]	phosphorylation enrichment [3]	phosphorylation enrichment [4]	phosphorylation enrichment [5]	phosphorylation enrichment [6]	phosphorylation enrichment [7]	phosphorylation enrichment [8]	phosphorylation enrichment [9]	phosphorylation enrichment [10]	phosphorylation enrichment [11]	phosphorylation enrichment [12]	phosphorylation enrichment [13]
0.858	0.635	0.547	FDDIANIRKTL [PIK3CA_Y1021_Y1021N]	0.873	0.525	0.452	0.652	0.513	0.459	0.746	0.465	0.275	0.496	0.386	0.813	0.416
0.787	0.607	0.39	FDDIAYIRKAL [PIK3CA_Y1021_T1025A]	0.708	0.361	0.448	0.358	0.461	0.387	0.685	0.427	0.495	0.52	0.454	0.5	0.436
0.683	0.565	0.483	FDDIAYIRKTL [PIK3CA_Y1021]	0.75	0.469	0.481	0.456	0.496	0.411	0.878	0.514	0.469	0.835	0.474	0.62	0.449
0.741	0.746	0.521	FFHKFYNKSED [RYR1_Y4864_R4861H]	1	0.727	0.719	0.665	0.948	0.497	1.43	0.558	0.616	1.09	0.761	0.72	0.588
1.01	0.548	0.353	FGSSSYRGAGG [RPA2_Y14_G15R_YF]	0.64	0.431	0.551	0.551	0.584	0.409	0.876	0.494	0.523	0.692	0.568	0.998	0.659
1.06	1.12	0.662	FGVVGYLAIVF [RNF175_Y155_M159V]	1.4	0.811	0.691	0.559	1.14	0.649	1.94	0.452	0.557	1.65	0.498	1.1	0.457
